In publication PMC3431356, “Staphylococcus aureus Methicillin-Resistance Factor fmtA Is Regulated by the Global Regulator SarA”:

Key:
SarA [1] = target: T1, SarA (Staphylococcus aureus MRSA252, UniProt Q6GJ52 1-124); experiment: EMSA; EMSA: 10 mM Tris-HCl pH 7.5, 50 mM KCl, 1 mM DTT, 5 mM MgCl2, 2.5% glycerol, 1 ug poly(dI-dC), 200 ng herring sperm DNA, 30 min, temperature not stated, 6% native gel; Kd = protein at 50% bound DNA. Footprinting: same buffer, 37 C, DNase I at 25 C; conditions: protein: recombinant; tags: none (pET22b, pelB leader removed); chain copies: 2; label: 5'-32P; blunt
T1 sequence: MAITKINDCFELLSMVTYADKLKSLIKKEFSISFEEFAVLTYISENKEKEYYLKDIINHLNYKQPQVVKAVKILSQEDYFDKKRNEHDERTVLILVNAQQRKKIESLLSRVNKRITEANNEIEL

SarA [2] = target: T1, SarA; experiment: EMSA; no binding up to 1.8 uM SarA; EMSA: 10 mM Tris-HCl pH 7.5, 50 mM KCl, 1 mM DTT, 5 mM MgCl2, 2.5% glycerol, 1 ug poly(dI-dC), 200 ng herring sperm DNA, 30 min, temperature not stated, 6% native gel; Kd = protein at 50% bound DNA. Footprinting: same buffer, 37 C, DNase I at 25 C; conditions: protein: recombinant; tags: none (pET22b, pelB leader removed); chain copies: 2; label: 5'-32P
SarA [3] = target: T1, SarA; experiment: EMSA; printed as >=1.8 uM; no saturation up to 3.6 uM, binding stated; EMSA: 10 mM Tris-HCl pH 7.5, 50 mM KCl, 1 mM DTT, 5 mM MgCl2, 2.5% glycerol, 1 ug poly(dI-dC), 200 ng herring sperm DNA, 30 min, temperature not stated, 6% native gel; Kd = protein at 50% bound DNA. Footprinting: same buffer, 37 C, DNase I at 25 C; conditions: protein: recombinant; tags: none (pET22b, pelB leader removed); chain copies: 2; label: 5'-32P

B1: Pagr 45-bp (dsDNA)
DNA 1: GTAAATTTTTTTATGTTAAAATATTAAATACAAATTACATTTAAC
DNA 2: GTTAAATGTAATTTGTATTTAATATTTTAACATAAAAAAATTTAC
B1 showed a Kd (SarA [1]) of roughly 400 nM.

B2: seqB1 (dsDNA)
DNA 1: CATATTAGAAAAACTTATTACTATGTAGCGTAAAGC
DNA 2: GCTTTACGCTACATAGTAATAAGTTTTTCTAATATG
B2: no binding (SarA [2]).

B3: seqA1 (dsDNA)
DNA 1: CATTATAGCCTTAAATTGTAGTACTTTATAGTAAAAAATACAAATGTTATGTC
DNA 2: GACATAACATTTGTATTTTTTACTATAAAGTACTACAATTTAAGGCTATAATG
In the case of B3, the Kd (SarA [3]) is reported as greater than 1800 nM.
